Assay [1] deals with T1, mouse MAdCAM (mouse, UniProt Q61826 22-365, limits assumed).
T1 construct: also called mouse MAdCAM-1; muMAdCAM
T1 sequence (looked up): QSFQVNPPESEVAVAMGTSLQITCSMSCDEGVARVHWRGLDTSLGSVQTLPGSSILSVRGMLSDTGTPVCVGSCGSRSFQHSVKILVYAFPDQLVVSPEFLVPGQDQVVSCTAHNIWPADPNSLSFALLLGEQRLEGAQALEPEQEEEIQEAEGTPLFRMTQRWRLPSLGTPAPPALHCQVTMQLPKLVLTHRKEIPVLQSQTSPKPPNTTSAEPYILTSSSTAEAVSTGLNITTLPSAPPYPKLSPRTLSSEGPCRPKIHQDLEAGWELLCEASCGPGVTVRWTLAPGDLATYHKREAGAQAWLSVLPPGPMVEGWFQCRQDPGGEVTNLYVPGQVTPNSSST
Kind of assay: BLI (Octet), binder on AHC tips. The method, boiled down: (§1)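 Octet96 RED assay with anti-human IgG Fc biosensors equilibrated 20 minutes in assay buffer. Test article at 10 μg/mL in assay buffer was loaded onto tips for 240 s. Association with MAdCAM lasted 120 s and dissociation in assay buffer 120 s; MAdCAM-1 was a seven-point serial dilution from 200 nM down to 3.13 nM. Kinetic rates and dissociation constant came from a global one-to-one fit in the Octet data analysis software.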

In assay [2] the target is T2, human MAdCAM (human, UniProt Q13477 19-317, limits assumed).
T2 construct: also called huMAdCAM; human MAdCAM-1
T2 sequence (looked up): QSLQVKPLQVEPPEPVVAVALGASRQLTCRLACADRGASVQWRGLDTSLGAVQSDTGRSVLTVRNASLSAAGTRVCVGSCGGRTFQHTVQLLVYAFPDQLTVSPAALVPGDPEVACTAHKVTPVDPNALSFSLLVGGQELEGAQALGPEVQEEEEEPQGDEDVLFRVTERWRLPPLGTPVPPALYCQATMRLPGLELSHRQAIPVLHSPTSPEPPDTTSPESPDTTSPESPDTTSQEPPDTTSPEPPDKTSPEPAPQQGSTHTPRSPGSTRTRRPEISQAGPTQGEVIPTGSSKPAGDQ
Kind of assay: BLI (Octet), binder on AHC tips. Put shortly:
as §1
For orientation: In BLI a coated tip is dipped into the sample, and binding shifts an interference pattern.

Data on 6 molecules can be found in patent US20240010722A1 (published 2024).

The Kd is the free concentration of one partner at which half of the binding sites on the other are occupied at equilibrium, for simple one-to-one binding. Usually koff stands for a measure of how fast the partners let go of each other. Usually kon stands for the second-order rate constant of association. A high value points to fast association.

B1: PMAB19 (bispecific antibody, human IgG1, kappa)
heavy: EVQLLESGGGLVQPGGSLRLSCAASGFTFSNSDMSWVRQAPGKGLEWVSGITISGGSTYYADSVKGRFTISRDNSKNTLYLQMNSLRAEDTAVYYCARGRGGSGWLDYWGQGTLVTVSSASTKGPSVFPLAPSSKSTSGGTAALGCLVKDYFPEPVTVSWNSGALTSGVHTFPAVLQSSGLYSLSSVVTVPSSSLGTQTYICNVNHKPSNTKVDKKVEPKSCDKTHTCPPCPAPEAAGAPSVFLFPPKPKDTLMISRTPEVTCVVVDVSHEDPEVKFNWYVDGVEVHNAKTKPREEQYNSTYRVVSVLTVLHQDWLNGKEYKCKVSNKALPAPIEKTISKAKGQPREPQVYTLPPSREEMTKNQVSLTCLVKGFYPSDIAVEWESNGQPENNYKTTPPVLDSDGSFFLYSKLTVDKSRWQQGNVFSCSVMHEALHNHYTQKSLSLSPGGGGGSGGGGSGGGGSEVQLLESGGGLVQPGGSLRLSCAASGFTFSSFWMHWVRQAPGKGLEWISYISGDSGYTNYADSVKGRFTISRDNSKNTLYLQMNSLRAEDTAVYYCARDRPYYYYMDVWGKGTTVTVSSGGGGSGGGGSGGGGSGGGGSDIQMTQSPSSLSASVGDRVTITCRASQSVSRSLAWYQQKPGKAPKLLIYAASSLQSGVPSRFSGSGSGTDFTLTISSLQPEDFATYYCQQYKSYPVTFGQGTKVEIK
light: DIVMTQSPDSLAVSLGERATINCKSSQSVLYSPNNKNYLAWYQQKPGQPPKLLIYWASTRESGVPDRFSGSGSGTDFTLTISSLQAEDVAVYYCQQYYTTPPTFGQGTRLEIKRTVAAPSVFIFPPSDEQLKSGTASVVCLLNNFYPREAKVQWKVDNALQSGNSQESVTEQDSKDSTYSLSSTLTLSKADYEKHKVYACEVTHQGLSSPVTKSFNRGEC
In assay [1], B1 had a Kd of 112 nM, a koff of 0.0177 s⁻¹, a kon of 158000 M⁻¹ s⁻¹ and a response of 0.149. In assay [2], binding was put at a Kd of 31.2 nM, the koff amounted to 0.0168 s⁻¹ and the association rate constant (kon) came out at 540000 M⁻¹ s⁻¹.

B2: PMAB25 (bispecific antibody, human IgG1, kappa)
heavy: EVQLLESGGGLVQPGGSLRLSCAASGFTFSNSDMSWVRQAPGKGLEWVSGITISGGSTYYADSVKGRFTISRDNSKNTLYLQMNSLRAEDTAVYYCARGRGGSGWLDYWGQGTLVTVSSASTKGPSVFPLAPSSKSTSGGTAALGCLVKDYFPEPVTVSWNSGALTSGVHTFPAVLQSSGLYSLSSVVTVPSSSLGTQTYICNVNHKPSNTKVDKKVEPKSCDKTHTCPPCPAPEAAGAPSVFLFPPKPKDTLMISRTPEVTCVVVDVSHEDPEVKFNWYVDGVEVHNAKTKPREEQYNSTYRVVSVLTVLHQDWLNGKEYKCKVSNKALPAPIEKTISKAKGQPREPQVYTLPPSREEMTKNQVSLTCLVKGFYPSDIAVEWESNGQPENNYKTTPPVLDSDGSFFLYSKLTVDKSRWQQGNVFSCSVMHEALHNHYTQKSLSLSPGGGGGSGGGGSGGGGSEVQLLESGGGLVQPGGSLRLSCAASGFTFSDFWMHWVRQAPGKGLEWISYISGSSGYTNYADSVKGRFTISRDNSKNTLYLQMNSLRAEDTAVYYCARDRPYYYYMDVWGKGTTVTVSSGGGGSGGGGSGGGGSGGGGSDIQMTQSPSSLSASVGDRVTITCRASQSVSRSLAWYQQKPGKAPKLLIYAASSLQSGVPSRFSGSGSGTDFTLTISSLQPEDFATYYCQQYKSYPVTFGQGTKVEIK
light: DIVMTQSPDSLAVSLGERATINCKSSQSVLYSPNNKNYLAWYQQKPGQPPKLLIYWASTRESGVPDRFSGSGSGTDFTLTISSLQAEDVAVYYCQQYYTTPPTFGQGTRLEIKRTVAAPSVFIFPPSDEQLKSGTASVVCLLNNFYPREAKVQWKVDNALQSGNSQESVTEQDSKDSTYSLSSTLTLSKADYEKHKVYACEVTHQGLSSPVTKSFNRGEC
In assay [1], B2 yielded a Kd of 115 nM, an off-rate (koff) of 0.012 s⁻¹, a kon of 105000 M⁻¹ s⁻¹ and a response of 0.133. Moreover, in assay [2], the Kd was 43.6 nM, the off-rate constant (koff) amounted to 0.0212 s⁻¹ and the kon amounted to 486000 M⁻¹ s⁻¹.

B3: PMAB23 (bispecific antibody, human IgG1, kappa)
heavy: EVQLLESGGGLVQPGGSLRLSCAASGFTFSNSDMSWVRQAPGKGLEWVSGITISGGSTYYADSVKGRFTISRDNSKNTLYLQMNSLRAEDTAVYYCARGRGGSGWLDYWGQGTLVTVSSASTKGPSVFPLAPSSKSTSGGTAALGCLVKDYFPEPVTVSWNSGALTSGVHTFPAVLQSSGLYSLSSVVTVPSSSLGTQTYICNVNHKPSNTKVDKKVEPKSCDKTHTCPPCPAPEAAGAPSVFLFPPKPKDTLMISRTPEVTCVVVDVSHEDPEVKFNWYVDGVEVHNAKTKPREEQYNSTYRVVSVLTVLHQDWLNGKEYKCKVSNKALPAPIEKTISKAKGQPREPQVYTLPPSREEMTKNQVSLTCLVKGFYPSDIAVEWESNGQPENNYKTTPPVLDSDGSFFLYSKLTVDKSRWQQGNVFSCSVMHEALHNHYTQKSLSLSPGGGGGSGGGGSGGGGSEVQLLESGGGLVQPGGSLRLSCAASGFTFSDFWMHWVRQAPGKGLEWVSYISGDSGYTNYADSVKGRFTISRDNSKNTLYLQMNSLRAEDTAVYYCARDRPYYYYMDVWGKGTTVTVSSGGGGSGGGGSGGGGSGGGGSDIQMTQSPSSLSASVGDRVTITCRASQSVSRSLAWYQQKPGKAPKLLIYAASSLQSGVPSRFSGSGSGTDFTLTISSLQPEDFATYYCQQYKSYPVTFGQGTKVEIK
light: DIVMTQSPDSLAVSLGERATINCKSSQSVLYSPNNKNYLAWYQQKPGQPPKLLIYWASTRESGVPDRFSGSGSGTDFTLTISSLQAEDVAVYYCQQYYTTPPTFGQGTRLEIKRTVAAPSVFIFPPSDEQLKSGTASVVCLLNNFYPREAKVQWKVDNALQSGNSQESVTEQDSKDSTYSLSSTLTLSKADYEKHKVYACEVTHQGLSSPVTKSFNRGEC
In assay [1], B3 showed a dissociation constant (Kd) of 141 nM, a koff of 0.0178 s⁻¹, a kon of 126000 M⁻¹ s⁻¹ and a response of 0.141. In assay [2], this molecule yielded a Kd of 110 nM, a koff of 0.0389 s⁻¹ and a kon of 355000 M⁻¹ s⁻¹.

B4: PMAB26 (bispecific antibody, human IgG1, kappa)
heavy: EVQLLESGGGLVQPGGSLRLSCAASGFTFSNSDMSWVRQAPGKGLEWVSGITISGGSTYYADSVKGRFTISRDNSKNTLYLQMNSLRAEDTAVYYCARGRGGSGWLDYWGQGTLVTVSSASTKGPSVFPLAPSSKSTSGGTAALGCLVKDYFPEPVTVSWNSGALTSGVHTFPAVLQSSGLYSLSSVVTVPSSSLGTQTYICNVNHKPSNTKVDKKVEPKSCDKTHTCPPCPAPEAAGAPSVFLFPPKPKDTLMISRTPEVTCVVVDVSHEDPEVKFNWYVDGVEVHNAKTKPREEQYNSTYRVVSVLTVLHQDWLNGKEYKCKVSNKALPAPIEKTISKAKGQPREPQVYTLPPSREEMTKNQVSLTCLVKGFYPSDIAVEWESNGQPENNYKTTPPVLDSDGSFFLYSKLTVDKSRWQQGNVFSCSVMHEALHNHYTQKSLSLSPGGGGGSGGGGSGGGGSEVQLLESGGGLVQPGGSLRLSCAASGFTFSDFWMHWVRQAPGKGLEWISYISGDGGYTNYADSVKGRFTISRDNSKNTLYLQMNSLRAEDTAVYYCARDRPYYYYMDVWGKGTTVTVSSGGGGSGGGGSGGGGSGGGGSDIQMTQSPSSLSASVGDRVTITCRASQSVSRSLAWYQQKPGKAPKLLIYAASSLQSGVPSRFSGSGSGTDFTLTISSLQPEDFATYYCQQYKSYPVTFGQGTKVEIK
light: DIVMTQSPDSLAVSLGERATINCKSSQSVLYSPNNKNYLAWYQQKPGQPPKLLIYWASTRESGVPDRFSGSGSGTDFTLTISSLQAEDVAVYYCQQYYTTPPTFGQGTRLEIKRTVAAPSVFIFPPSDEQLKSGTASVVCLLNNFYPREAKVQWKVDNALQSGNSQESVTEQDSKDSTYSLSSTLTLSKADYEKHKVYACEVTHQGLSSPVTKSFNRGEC
In assay [1], B4 yielded a Kd of 134 nM, an off-rate constant (koff) of 0.0118 s⁻¹, a kon of 87900 M⁻¹ s⁻¹ and a response of 0.132. In assay [2], this molecule displayed a Kd of 138 nM, a koff of 0.0658 s⁻¹ and a kon of 476000 M⁻¹ s⁻¹.

B5: PMAB24 (bispecific antibody, human IgG1, kappa)
heavy: EVQLLESGGGLVQPGGSLRLSCAASGFTFSNSDMSWVRQAPGKGLEWVSGITISGGSTYYADSVKGRFTISRDNSKNTLYLQMNSLRAEDTAVYYCARGRGGSGWLDYWGQGTLVTVSSASTKGPSVFPLAPSSKSTSGGTAALGCLVKDYFPEPVTVSWNSGALTSGVHTFPAVLQSSGLYSLSSVVTVPSSSLGTQTYICNVNHKPSNTKVDKKVEPKSCDKTHTCPPCPAPEAAGAPSVFLFPPKPKDTLMISRTPEVTCVVVDVSHEDPEVKFNWYVDGVEVHNAKTKPREEQYNSTYRVVSVLTVLHQDWLNGKEYKCKVSNKALPAPIEKTISKAKGQPREPQVYTLPPSREEMTKNQVSLTCLVKGFYPSDIAVEWESNGQPENNYKTTPPVLDSDGSFFLYSKLTVDKSRWQQGNVFSCSVMHEALHNHYTQKSLSLSPGGGGGSGGGGSGGGGSEVQLLESGGGLVQPGGSLRLSCAASGFTFSDFWMHWVRQAPGKGLEWISAISGDSGYTNYADSVKGRFTISRDNSKNTLYLQMNSLRAEDTAVYYCARDRPYYYYMDVWGKGTTVTVSSGGGGSGGGGSGGGGSGGGGSDIQMTQSPSSLSASVGDRVTITCRASQSVSRSLAWYQQKPGKAPKLLIYAASSLQSGVPSRFSGSGSGTDFTLTISSLQPEDFATYYCQQYKSYPVTFGQGTKVEIK
light: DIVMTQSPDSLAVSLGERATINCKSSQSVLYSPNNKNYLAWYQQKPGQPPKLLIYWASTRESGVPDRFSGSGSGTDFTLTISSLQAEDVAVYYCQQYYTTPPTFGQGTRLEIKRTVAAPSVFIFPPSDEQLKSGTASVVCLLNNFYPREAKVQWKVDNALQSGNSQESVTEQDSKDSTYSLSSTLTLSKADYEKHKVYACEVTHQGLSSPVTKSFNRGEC
For B5, in assay [1], the affinity, expressed as Kd, was 52.4 nM; the koff is 0.00596 s⁻¹; the kon came out at 114000 M⁻¹ s⁻¹; the response was 0.0549. Further, in assay [2], the Kd stood at 33.2 nM, the off-rate (koff) turned out to be 0.0134 s⁻¹ and the kon worked out at 404000 M⁻¹ s⁻¹.

B6: PMAB20 (bispecific antibody, human IgG1, kappa)
heavy: EVQLLESGGGLVQPGGSLRLSCAASGFTFSNSDMSWVRQAPGKGLEWVSGITISGGSTYYADSVKGRFTISRDNSKNTLYLQMNSLRAEDTAVYYCARGRGGSGWLDYWGQGTLVTVSSASTKGPSVFPLAPSSKSTSGGTAALGCLVKDYFPEPVTVSWNSGALTSGVHTFPAVLQSSGLYSLSSVVTVPSSSLGTQTYICNVNHKPSNTKVDKKVEPKSCDKTHTCPPCPAPEAAGAPSVFLFPPKPKDTLMISRTPEVTCVVVDVSHEDPEVKFNWYVDGVEVHNAKTKPREEQYNSTYRVVSVLTVLHQDWLNGKEYKCKVSNKALPAPIEKTISKAKGQPREPQVYTLPPSREEMTKNQVSLTCLVKGFYPSDIAVEWESNGQPENNYKTTPPVLDSDGSFFLYSKLTVDKSRWQQGNVFSCSVMHEALHNHYTQKSLSLSPGGGGGSGGGGSGGGGSEVQLLESGGGLVQPGGSLRLSCAASGFTFSDYWMHWVRQAPGKGLEWISYISGDSGYTNYADSVKGRFTISRDNSKNTLYLQMNSLRAEDTAVYYCARDRPYYYYMDVWGKGTTVTVSSGGGGSGGGGSGGGGSGGGGSDIQMTQSPSSLSASVGDRVTITCRASQSVSRSLAWYQQKPGKAPKLLIYAASSLQSGVPSRFSGSGSGTDFTLTISSLQPEDFATYYCQQYKSYPVTFGQGTKVEIK
light: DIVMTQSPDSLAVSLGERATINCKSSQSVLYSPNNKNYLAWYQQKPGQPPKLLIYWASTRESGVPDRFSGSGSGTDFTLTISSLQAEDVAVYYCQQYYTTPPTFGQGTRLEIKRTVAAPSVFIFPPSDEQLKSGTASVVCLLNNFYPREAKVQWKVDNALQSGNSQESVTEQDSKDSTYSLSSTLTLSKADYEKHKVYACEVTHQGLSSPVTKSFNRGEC
As to B6, in assay [1], the Kd is 118 nM, the koff came out at 0.0193 s⁻¹, the kon came out at 163000 M⁻¹ s⁻¹ and the response was 0.153. Moreover, in assay [2], the affinity, expressed as Kd, was 90.5 nM; the dissociation rate constant (koff) was 0.0372 s⁻¹; the kon stood at 411000 M⁻¹ s⁻¹.
